This passage reports Kd results from paper PMC3428313.

Data set [1] has as its system C/EBPbeta isoform LIP (Flag-LIP), P17676-3. Kind of data set: competition EMSA. The note with it: 20 mM HEPES pH 8.0, 1 mM MgCl2, 60 mM KCl, 0.1 mM EDTA, 15% glycerol, 1 ug poly dI-dC, 8 ug nuclear extract; 30 min room temperature then 15 min 4 C; gel at …. Background: In EMSA bound probe runs differently from free probe, usually more slowly.
Data set [2] has as its system C/EBPbeta isoform LAP, P17676-2. Briefly: competition EMSA. The following applies: 20 mM HEPES pH 8.0, 1 mM MgCl2, 60 mM KCl, 0.1 mM EDTA, 15% glycerol, 1 ug poly dI-dC, 8 ug nuclear extract; 30 min room temperature then 15 min 4 C; gel at ….

C/EBPbeta isoform LAP, P17676-2, sequence (P17676 24-345): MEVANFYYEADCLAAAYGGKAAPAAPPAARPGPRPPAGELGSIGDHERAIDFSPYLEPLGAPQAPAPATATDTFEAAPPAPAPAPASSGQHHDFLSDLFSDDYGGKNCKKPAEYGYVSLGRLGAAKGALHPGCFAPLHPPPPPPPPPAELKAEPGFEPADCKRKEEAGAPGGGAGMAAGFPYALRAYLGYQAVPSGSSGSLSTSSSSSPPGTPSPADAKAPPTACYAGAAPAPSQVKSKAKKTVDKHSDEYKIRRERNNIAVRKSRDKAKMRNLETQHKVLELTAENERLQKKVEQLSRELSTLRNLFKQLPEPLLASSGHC
C/EBPbeta isoform LIP (Flag-LIP), P17676-3, sequence (P17676 199-345): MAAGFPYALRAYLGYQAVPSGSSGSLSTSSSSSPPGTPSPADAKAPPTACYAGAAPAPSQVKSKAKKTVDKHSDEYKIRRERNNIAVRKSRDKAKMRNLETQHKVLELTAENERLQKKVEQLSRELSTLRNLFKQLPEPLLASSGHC

Usually Kd stands for the equilibrium constant for the complex coming apart. Low values mean tighter binding, high ones weaker binding. Consider “GCTTGCTTGCTTAAAGACCT (double strand) [DS1C/A C/EBP site]”, for which the Kd in data set [1] was 5.1 10^-7 M; in data set [2], 24.8 10^-7 M.
For “GCTTGCTTGCTTAAAGCCCT (double strand) [DS1 wild-type C/EBP site]” the same measures were 17.5 10^-7 M and 50 10^-7 M.
